{
  "source": "paper doi:10.1101/651463",
  "about": "(bioRxiv, 2019)",
  "binders": {"B1": {"name": "Intrabody30 (scFv, V domains shown)", "VH": "EVQLVESGGGLVQPGGSLRLSCAASGFNVYSSSIHWVRQAPGKGLEWVASISSYYGYTYYADSVKGRFTISADTSKNTAYLQMNSLRAEDTAVYYCARSRQFWYSGLDYWGQGTLVTVSS", "VL": "DIQMTQSPSSLSASVGDRVTITCRASQSVSSAVAWYQQKPGKAPKLLIYSASSLYSGVPSRFSGSRSGTDFTLTISSLQPEDFATYYCQQYKYVPVTFGQGTKVEIK"}},
  "key": {"V2R-βarr1 complex": {"biological_target": "V2R-βarr1 complex (Homo sapiens (Human). ; Rattus …, UniProt P30518;P29066)", "experiment": "co-IP"}, "C5aR1-βarr1 complex": {"biological_target": "C5aR1-βarr1 complex (Homo sapiens (Human). ; Rattus …, UniProt P21730;P29066)", "experiment": "co-IP"}},
  "data": [
    {"binder": "B1", "values": [
      {"measurement": "binding result", "setting": "V2R-βarr1 complex", "value": "binds"},
      {"measurement": "binding result", "setting": "C5aR1-βarr1 complex", "value": "binds"}
    ]}
  ]
}
